{"source": "patent US20220356229A1", "about": "(published 2022)"}
{"target": "SARS-CoV Spike protein (full length Spike, coupled to optically encoded beads) (SARS-CoV, UniProt P59594 14-1190)", "units": {"median fluorescence, fold over isotype": "fold over isotype"}}
{"binder": "anti-SARS-CoV-2 antibody 392 (antibody, V domains shown) VH: QVQLQESGPGLVKPSGTLSLTCAVSGGSISSSNWWSWVRQPPGKGLEWIGEIYHSGSTNYNPSLKSRVTISVDKSKNQFSLKLSSVTAADTAVYYCARGWRATLYGMDVWGQGTTVTVSS VL: QSALTQPASVSGSPGQSITISCTGTSSDVGSYNLVSWYQQHPGKAPKLMIYEVSKRPSGVSNRFSGSKSGNTASLTISGLQAEDEADYYCCSYAGSSTWVFGGGTKLTVL", "median fluorescence, fold over isotype": 1.08}
{"binder": "anti-SARS-CoV-2 antibody 405 (antibody, V domains shown) VH: not shown VL: QSALTQPRSVSGSPGQSVTISCTGTSSDVGGYNYVSWYQQHPGKAPKLMIYDVSKRPSGVPDRFSGSKSGNTASLTISGLQAEDEADYYCCSYAGSYNVVFGGGTKLTVL", "median fluorescence, fold over isotype": 80.9}
{"binder": "anti-SARS-CoV-2 antibody 431 (antibody, V domains shown) VH: QVQLVESGGGVVQPGRSLRLSCAASGFTFSSYAMHWVRQAPGKGLEWLAVISYDGSNKYYADSVKGRFTISRDNSKNTLYLQMNSLRAEDTAVYYCARSFRGGYYYGMDVWGQGTTVTVSS VL: DIQLTQSPSFLSASVGDRVTITCRASQGISSYLAWYQQKPGKAPKLLIYAASTLQSGVPSRFSGSGSGTEFTLTISSLQPEDFATYYCQQLNSYPLFTFGPGTKVDIK", "median fluorescence, fold over isotype": 49.9}
{"binder": "anti-SARS-CoV-2 antibody 421 (antibody, V domains shown) VH: QVQLVESGGGVVQPGRSLRLSCAASGFTFSTYAMHWVRQAPGKGLEWVAVISYDGSNKYYADSVKGRFTISRDNSKNTLYLQMNSLRAEDTAVYYCARGYGSGSYYPLYLYWGQGTLVTVSS VL: not shown", "median fluorescence, fold over isotype": 1.19}
{"binder": "anti-SARS-CoV-2 antibody 385 (antibody, V domains shown) VH: QVQLVESGGGVVQPGRSLRLSCAASGFTFSSYAIHWVRQAPGKGLEWVAVISYDGSNKYYADSVKGRFTISRDNSKNTLYLQMNSLRAEDTAVYYCARPRSGSYWGAFDIWGQGTMVTVSS VL: QSVLTQPPSVSGAPGQRVTISCTGSSSNIGARYDVHWYQQLPGTAPKLLIYGNSNRPSGVPDRFSGSKSGTSASLAITGLQAEDEADYYCQSYDSSLRGVFGGGTKLTVL", "median fluorescence, fold over isotype": 59.6}
{"binder": "anti-SARS-CoV-2 antibody 404 (antibody, V domains shown) VH: QVQLVESGGGVVQPGRSLRLSCAASGFTFSSYGMHWVRQAPGKGLEWVAVIWYDGSNKYYADSVKGRFTISRDNSKNTLYLQMNSLRAEDTAVYYCARLAVDISFDGSDGMDVWGQGTTVTVSS VL: SYELTQPPSVSVSPGQTARITCSGDALPKKYAYWYQQKSGQAPVLVIYEDSKRPSGIPERFSGSSSGTMATLTISGAQVEDEADYYCYSTDSSGKGVFGTGTKVTVL", "median fluorescence, fold over isotype": 1.04}
{"binder": "anti-SARS-CoV-2 antibody 422 (antibody, V domains shown) VH: QVQLVQSGSELKKPGASVKVSCKASGYTFTSYAMNWVRQAPGQGLEWMGWINTNTGNPTYAQGFTGRFVFSLDTSVSTTYLQISSLKAEDTAVYYCARVIGVVTYYYYGMDVWGQGTTVTVSS VL: not shown", "median fluorescence, fold over isotype": 1.19}
{"binder": "anti-SARS-CoV-2 antibody 409 (antibody, V domains shown) VH: QVTLRESGPALVKPTQTLTLTCTFSGFSLSTSGMCVSWIRQPPGKALEWLALIDWDDDKYYSTSLKTRLTISKDTSKNQVVLTMTNMDPVDTATYYCARTTYYYVSGRRAEFDPWGQGTLVTVSS VL: NFMLTQPHSVSESPGKTVTISCTGSSGSIASNYVQWYQQRPGSAPTTVIYEDNQRPSGVPDRFSGSIDSSSNSASLTISGLKTEDEADYYCQSYDSSNQGVFGGGTKLTVL", "median fluorescence, fold over isotype": 1.03}
{"binder": "anti-SARS-CoV-2 antibody 396 (antibody, V domains shown) VH: QVQLQQWGAGLLKPSETLSLTCAVYGGSFSGYYWSWIRQPPGKGLEWIGEIIHSGSTNYNPSLKSRVTISVDTSKNQFSLKLSSVTAADTAVYYSARRTGLLWFREGSYYFDYWGQGTLVTVSS VL: DIQMTQSPSSLSASVGDRVTITCRASQGIRNDLGWYQQKPGKAPKRLIYAASSLQSGVPSRFSGSGSGTEFTLTISSLQPEDFATYYCLQHNSYPLTFGGGTKVEIK", "median fluorescence, fold over isotype": 1.36}
{"binder": "anti-SARS-CoV-2 antibody 407 (antibody, V domains shown) VH: QVQLVESGGGVVQPGRSLRLSCAASGFTFSSYGMHWVRQAPGKGLEWVAVISYDGSNKYYADSVKGRFTISRDNSKNTLYLQMNSLRAEDTAVYYCAKCGWDYDFWVGQGYGMDVWGQGTTVTVSS VL: not shown", "median fluorescence, fold over isotype": 1.07}
{"binder": "anti-SARS-CoV-2 antibody 395 (antibody, V domains shown) VH: QVQLVQSGSELKKPGASVKLSCQASGYTFSNHAMNWVRQAPGQGLEWMGWINTNTGNPTYAQGFTGRFVFSLDTSVGTAYLHISSLKAEDTAFYYCARASARPGVATNLDFWGQGTLVVVSS VL: DIQMTQSPSSLSASVGDRVTITCRTSQNIDNYLNWYQQKPGKAPNLLIYAASRLHSGVPSRFSGSGSGTDFTLIISSLQPEDLATYYCQQSYSNPLTFGPGTKVDIR", "median fluorescence, fold over isotype": 1.16}
{"binder": "anti-SARS-CoV-2 antibody 412 (antibody, V domains shown) VH: QVQLVQSGAEVKKPGASVKVSCKASGYTFTSYGISWVRQAPGQGLEWMGWISAYNGNTNYAQKLQGRVTMTTDTSTSTAYMELRSLRSDDTAVYYCARVTVEAIFGVVILPLKNWFDPWGQGTLVTVSS VL: QSVLTQPPSVSGAPGQRVTISCTGSSSNIGAGYDVHWYQQLPGTAPKLLIYGNSNRPSGVPDRFSGSKSGTSASLAITGLQAEDEADYYCQSYDSSLTLYVFGTGTKVTVL", "median fluorescence, fold over isotype": 1.09}
{"binder": "anti-SARS-CoV-2 antibody 423 (antibody, V domains shown) VH: EVQLVESGGGLIQPGGSLRISCAASGFTVRNNHMSWVRQAPGKGLEWVSVFYRGGTTYYADSVKGRFTISRDDSKNTVDLQMNSLRGEDTAVYYCARGLSVAASGYFDCWGQGTLVTVSS VL: DIQMTQSPSSVSASVGDTVTITCRANQGISSWLAWYQQVPGKAPELLIYATSTLQSGVPSRFSGSGSGTDFTLTISSLQPEDFATYYCQQANSFPFTFGPGTKVDIK", "median fluorescence, fold over isotype": 1.23}
{"target": "SARS-CoV Spike protein (SARS-CoV, UniProt P59594 14-1190)"}
{"binder": "antibody 444 (antibody, V domains shown) VH: QVQLVESGGGLVKPGGSLRLSCAASGFTFSDYYMSWIRQAPGKGLEWVSYISSSGSTIYYADSVKGRFTISRDNAKNSLYLQMNSLRAEDTAVYYCARERKVVVAATRNYYYYYGMDVWGQGTTVTVSS VL: SYELTQPPSVSVSPGQTARITCSGDALPKQYAYWYQQKPGQAPVLVIYKDSERPSGIPERFSGSSSGTTVTLTISGVQAEDEADYYCQSADSSTWVFGGGTKLTVL", "bead binding signal (fold over isotype control)": 1}
{"binder": "antibody 439 (antibody, V domains shown) VH: QVQLVESGGGVVQPGRSLRLSCAASGFTFSSYAMHWVRQAPGKGLEWVAVISYDGSNKYYADSVKGRFTISRDNSKNTLYLQMNSLRAEDTAVYYCARPPRGGSYYPFDPWGQGTLVTVSS VL: not shown", "bead binding signal (fold over isotype control)": 1.23}
{"binder": "antibody 446 (antibody, V domains shown) VH: QVQLVESGGGVVQPGRSLRLSCAASGFTFSSYAMHWVRQAPGKGLEWVAVISYDGSNKYYADSVKGRFTISRDNSKNTLYLQMNSLRAEDTAVYYCARPNSGSYFGYFQHWGQGTLVTVSS VL: QSVLTQPPSVSGAPGQRVTISCTGSSSNIGAGYDVHWYQQLPGTAPKLLIYGNSNRPSGVPDRFSGSKSGTSASLAITGLQAEDEADYYCQSYDSSLSGFYVFGTGTKVTVL", "bead binding signal (fold over isotype control)": 6.58}
{"binder": "antibody 434 (antibody, V domains shown) VH: QVQLVQSGAEVKKPGASVQVSCKASGYTFSDYYIFWVRQAPGQGLEWMGCINPKSGGAIYAQRFQGRVTMTRDTSFNTAYMEMNRLGSDDTAVYYCVTRGPPDIAASGFAWHLDVWGQGTTVTVSS VL: DIVMTQSPLSLPVTPGEPASISCRSSQSLLSSNGYNYLEWYLQKPGQSPQLLMYLGSNRASGVPDRFSGSGSGTDFTLKINRVEAEDVGVYYCMQALQTPLTFGGGTKVEIK", "bead binding signal (fold over isotype control)": 1.36}
{"binder": "antibody 443 (antibody, V domains shown) VH: QMRLEESGPGLVKPSETLSLTCTVAGGSITSSDYFWGWLRQSPGKGLEWIASTYHGGSIQYHPALKSRVTISVDASKNQISLRLSSVTAADTAVYYCARDRGDDGPMGTYYFDHWGQGALVTVSS VL: QSVLTQPPSVSGAPGQSVTISCAGSSSNIGAGHDVHWYQQIPGTAPKLLICGNTNRPSGVPERFSGSRSGTSASLAITGLQAEDEAVYYCQSYDPSHVFFGTGTKLTVL", "bead binding signal (fold over isotype control)": 1.03}
{"target": "SARS-CoV-2 Spike (S) protein, wild type, full length (SARS-CoV-2, UniProt P0DTC2 14-1208)", "units": {"bead binding signal (fold over isotype)": "fold over isotype"}}
{"binder": "antibody 273 (antibody, V domains shown) VH: QVQLVQSGAEVKKPGASVKVSCKVSGYTLTELSMHWVRQAPGKGLEWMGGFDPEDGETIYAQKFQGRVTMTEDTSTDTAYMELSSLRSEDTAVYYCATAPGYYDSSAPQPINWFDPWGQGTLVTVSS VL: QSALTQPASVSGSPGQSITISCTGTSSDVGSYNLVSWYQQHPGKAPKLMIYEVSKRPSGVSNRFSGSKSGNTASLTISGLQAEDEADYYCCSYAGSSTLVFGGGTKLTVL", "bead binding signal (fold over isotype)": 924}
{"binder": "antibody 264 (antibody, V domains shown) VH: QVHLVESGGGVVQPGRSLRLSCAASGFTLTSYAMHWVRQAPGKGLEWVALISYDGSVKKYAESVKGRITVSGDNSRNTLHLQINTLRADDTAVYYCVRGGVSGPNSFDLWGQGTMVTVSS VL: DVVMTQSPLSLPVTLGQPASISCRSSQSLEYSDGNTYVNWFQQRPGQSPRRLIYQVSNRASGVPDRFSGSGSGTDFTLQISRVEAEDVGIYYCMQGTHWPVTFGQGTKVEIK", "bead binding signal (fold over isotype)": 598}
{"binder": "antibody 281 (antibody, V domains shown) VH: not shown VL: QSALTQPASVSGSPGQSITISCTGTSSDVGSYNLVSWYQQHPGKAPKLMIYEVSKRPSGVSNRFSGSKSGNTASLTISGLQAEDEADYYCCSYAGSSTHVVFGGGTKLTVL", "bead binding signal (fold over isotype)": 570}
{"binder": "antibody 265 (antibody, V domains shown) VH: EVQLVQSGAEVKKPGATVKVSCKFSGDTFSHYYIHWVQQAPGKGLEWMGLVDPQDGESEYAQKFQGKVTITADTSIDTSYLEVTSLRFDDTAFYFCATRGMSGAFDRWGQGTLVTVSS VL: DIVMTQSPDSLAVSLGERATINCKSSQSILSTSNNKNYLAWYQQKPGQPPKLLIYWASTRESGVPDRFSGGGSGTDFTLTISSLQAEDVAVYYCQQYYRTAYTTPIYTFGQGTKLEIK", "bead binding signal (fold over isotype)": 1280}
{"binder": "antibody 276 (antibody, V domains shown) VH: QVQLQESGPGLVKPSQTLSLTCTVSGDSISSGGYYWSWIRQHPGKGLEWIGYIYYSGSAYYNPSLKSRVTISLDTSKNQFSLKLSSVTAADTAVYYCARDSVAGFSIFDYWGQGTLVTVSS VL: SSELTQDPAVSVALGQTVRITCQGDSLRSYYASWYQQKPGQAPVRVIYGKNNRPSGIPDRFSGSSSGNTASLTITGAQAEDEADYYCNSWDSSGNHVVFGGGTKLTVL", "bead binding signal (fold over isotype)": 748}
